Entries after “also recorded” stand apart in the source; their conditions may differ.

Data set [1] relates to human pancreas and breast tumor tissue. Description: immunohistochemical staining of human tumor and normal tissue. The conditions noted are these: IHC. The format is binding. The text has this:
FIGS. 1A and 1B are a series of photomicrographs depicting specific binding of an exemplary antibody of the presently disclosed subject matter to human and mouse pancreatic tumors. The dark staining in the panels is indicative of positive binding of the exemplary antibody to cells present in the sample. […] FIG. 1B is a series of photomicrographs depicting the binding of an exemplary antibody of the presently disclosed subject matter to spontaneous tumors present in the pancreas of 6, 16, 26, and 34 week old transgenic mice that carried a human MUC1 transgene and a K-ras^G12D mutation.
FIGS. 2A and 2B are a series of photomicrographs depicting specific binding of an exemplary antibody of the presently disclosed subject matter (i.e., a horse radish peroxidase (HRP)-labeled TAB-004 anti-MUC1 monoclonal antibody) to human breast tumor tissue. […]
Epitope screening determined that the TAB-004 monoclonal antibody (mAb) described herein bound to an epitope present within SEQ ID NO: 3. […]

Another data set relates to KCM pancreatic cell line. Description: binding to KCM pancreatic cell line. The format is cell-based, mouse. The text has this:
FIG. 3 is a schematic (upper left panel) showing an approach for creating a triple transgenic mouse line that expresses the Cre recombinase throughout the pancreas, a mutated K-ras oncogene polypeptide, and a human MUC1 polypeptide. This mouse develops pancreatic adenocarcinoma, cells of which were used to generate the primary tumor cell line KCM (lower panel). The KCM cell line was used to test the binding of an exemplary antibody of the presently disclosed subject matter (denoted in the Figure as “TAB” and in the instant disclosure as “TAB-004”) either alone or conjugated to CpG oligodeoxynucleotides (CpG ODN).
The TAB-004 antibody alone or conjugated to CpG ODN bound to a tumor cell line (referred to herein as the “KCM” cell line; see FIG. 3) generated from the triple transgenic PDA.MUC1.Tg mice.

Data set [2] deals with orthotopic tumors (PyVMT, PyVMT.MUC1, HCC-70, and AU565). Description: IVIS imaging of TAB-004-ICG in Nu-J nude mice with orthotopic tumors. The class given is in vivo, mouse. The conditions noted are these: ICG-conjugated. The protocol:
FIGS. 18A-18D are a series of fluorescent images showing specific homimg of the ICG-tagged TAB-004 antibody to tumor sites in mice bearing PyV MT tumors (MUC1 null negative control; FIG. 18A), PyV MT.MUC1 tumors (MMT, MUC1+ positive control; FIG. 18B), HCC70 cell triple negative breast cancer (TNBC) tumors (MUC1+; FIG. 18C), and AU565 TNBC cell tumors (MUC1+; […]) imaged 4 hours post-injection with antibody. Imaging was repeated as tumors progressed (indicated as days post tumor challenge). […] Each of FIGS. 18A-18D is accompanied by a graph showing the growth of the tumor from 7-21 days (FIGS. 18A and 18B) or from 7 to 54 days (FIGS. 18C and 18D).
To test if TAB-004 can specifically reach TNBC tumors in vivo in mice, orthotopic tumors (PyVMT, PyVMT.MUC1, HCC-70, and AU565) were produced in the mammary fat pad of mice. Nu-J nude mice (8-week old) were injected with 10×10^6 cells in the lower right inquinal area of the mammary fat pad. When tumors were palpable, mice were injected retroorbitally with 12.5 μgs of TAB-004-directly conjugated to Indocyanine green (ICG) and imaged 4 hours post antibody injection. […] A negative breast cancer cell line that is null for human MUC1 was used as control to test specificity (PyVMT; see FIG. 18A).

B1: TAB-004: mAb of the IgG isotype produced by hybridoma ATCC PTA-11550; binds tumor-specific epitope of human MUC1 (antibody, V domains shown)
VH: EVQLQQSGGERATPGASVKMSCKTSGYTFTNYWMHWVKQRPGQGLEWIGYINPSSGYTQYNQKFKDKATLTADKSSSTAYIQLSSLTSEDSAVYYCSTYYGDYLFPYWGQGTLVTVSA
VL: DVLMTQTPLSLPVSLGDQASISCRSSQDIVYGNGNTYLEWYLQKPGQSPKLLIYKVSNRFSGVPDRFSGSGSGTDFTLKISRVEAEDLGVYYCFQGSHVPYTFGGGTKLEIKR
Regarding B1, in data set [1], the “staining of normal tissue” value is reported as “did not bind appreciably to normal pancreas or breast tissue; also recorded: did not bind to normal tissue” and the “staining of tumor tissue” value is given as “reacted strongly with tumor tissue; also recorded: strongly stained”. Moreover, the “binding to KCM cell line” value in the data set with KCM pancreatic cell line is given as “bound to the KCM pancreatic cell line with equal affinity”. For the same molecule, the “earliest specific localization to tumor sites, human cell lines” value in data set [2] (HCC70 and AU565, days post tumor challenge) worked out at 21 days. Moreover, the “earliest specific localization to tumor sites, PyVMT.MUC1 tumors” value in data set [2] (days post tumor challenge) came to 11 days.

Source of the values: patent US12605469B2, “Tumor specific antibody conjugates and uses therefor” (The University of North Carolina at Charlotte, priority 2019, dated 2026).
